The source of these data is publication PMC10380307, “Enzymatic Characterization of the Isocitrate Dehydrogenase with Dual Coenzyme Specificity from the Marine Bacterium Umbonibacter marinipuiceus” (International Journal of Molecular Sciences, 2023).

Substrate in data set [1]: NC(=O)c1ccc[n+]([C@@H]2O[C@H](COP(=O)(O)OP(=O)(O)OC[C@H]3O[C@@H](n4cnc5c(N)ncnc54)[C@H](OP(=O)(O)O)[C@@H]3O)[C@@H](O)[C@H]2O)c1
Description: purified protein. In kind it is biochemical, Umboniibacter marinipuniceus. Conditions: 1 mM DL-isocitrate, 50 mM Tris-HCl pH 8.5, 25 °C, apparent constant, varied: cofactor.

Substrate in data set [2]: NC(=O)c1ccc[n+]([C@@H]2O[C@H](COP(=O)(O)OP(=O)(O)OC[C@H]3O[C@@H](n4cnc5c(N)ncnc54)[C@H](O)[C@@H]3O)[C@@H](O)[C@H]2O)c1
Description: purified protein. In kind it is biochemical, Umboniibacter marinipuniceus. Conditions: 1 mM DL-isocitrate, 50 mM Tris-HCl pH 8.5, 25 °C, apparent constant, varied: cofactor.

B1: UmIDH (Umboniibacter marinipuniceus) (protein)
chain: MTFQYILPPKSGEPIQHTQDNQIIVPDRPIIPYIEGDGIGIDITPVMLEVVDAAVAQAYKGKKSIAWMEVFCGEKAADIYEGDWFPPETLAALQKYSVAIKGPLTTPIGGGFRSLNVALRQELDLYVCQRPIQWFKGVPSVVRKPNAVKMVIFRENSEDIYAGIEWRAGSEEAIKVTRFLQEEMGVTSLRFTENCGLGVKPISEQGSKRLVRKAIEYAIAHDKPSVTMVHKGNIMKYTEGAFCEWGYEVACEEFGATHEADSPWLTIINPNTAAKIVIKDVIADAMMQEILMYPQDHSVIATMNLNGDYLSDALAAQVGGIGIAPGANIGDRIALFEPTHGTAPRLAGMDRVNPCSLILSAEMMLRHLGWTKAADLMVKGVKYTISDRTVTHDFHSMMEHAELLSTSEFGAAVIKNMRRR
notes: full-length, codon-optimised synthetic gene in pET28b (NdeI/XhoI), 6xHis tag, E. coli Rosetta (DE3); Type I IDH; putative coenzyme residues R345, L346, V352
For the protein B1, in “purified protein [1]” (Mn2+ (2 mM)), the Km – broadly, the substrate concentration at which the rate is half of its maximum – worked out at 1167.7 ± 113.0 µM; the kcat – broadly, the number of substrate molecules converted per active site and unit of time at saturation – is 11.1 ± 0.4 s⁻¹; the kcat/Km (in general, the second-order rate constant that governs catalysis at low substrate concentration) was 9500 M⁻¹ s⁻¹. In addition, in the data set “purified protein [2]” (Mn2+ (2 mM)), the Km stood at 1800.0 ± 64.4 µM, the catalytic constant (kcat) was 7.5 ± 0.3 s⁻¹ and the catalytic efficiency (kcat/Km) amounted to 4200 M⁻¹ s⁻¹.

B2: UmIDH (Umboniibacter marinipuniceus; L346Y/R345K) (protein)
chain: MTFQYILPPKSGEPIQHTQDNQIIVPDRPIIPYIEGDGIGIDITPVMLEVVDAAVAQAYKGKKSIAWMEVFCGEKAADIYEGDWFPPETLAALQKYSVAIKGPLTTPIGGGFRSLNVALRQELDLYVCQRPIQWFKGVPSVVRKPNAVKMVIFRENSEDIYAGIEWRAGSEEAIKVTRFLQEEMGVTSLRFTENCGLGVKPISEQGSKRLVRKAIEYAIAHDKPSVTMVHKGNIMKYTEGAFCEWGYEVACEEFGATHEADSPWLTIINPNTAAKIVIKDVIADAMMQEILMYPQDHSVIATMNLNGDYLSDALAAQVGGIGIAPGANIGDRIALFEPTHGTAPKYAGMDRVNPCSLILSAEMMLRHLGWTKAADLMVKGVKYTISDRTVTHDFHSMMEHAELLSTSEFGAAVIKNMRRR
notes: as for B1
Take B2: in “purified protein [1]” (metal not stated for mutants), the Km was 605.9 ± 38.2 µM, the kcat was found to be 15.3 ± 0.2 s⁻¹ and the catalytic efficiency (kcat/Km) turned out to be 25000 M⁻¹ s⁻¹.

B3: UmIDH (Umboniibacter marinipuniceus; L346I/R345D/V352A) (protein)
chain: MTFQYILPPKSGEPIQHTQDNQIIVPDRPIIPYIEGDGIGIDITPVMLEVVDAAVAQAYKGKKSIAWMEVFCGEKAADIYEGDWFPPETLAALQKYSVAIKGPLTTPIGGGFRSLNVALRQELDLYVCQRPIQWFKGVPSVVRKPNAVKMVIFRENSEDIYAGIEWRAGSEEAIKVTRFLQEEMGVTSLRFTENCGLGVKPISEQGSKRLVRKAIEYAIAHDKPSVTMVHKGNIMKYTEGAFCEWGYEVACEEFGATHEADSPWLTIINPNTAAKIVIKDVIADAMMQEILMYPQDHSVIATMNLNGDYLSDALAAQVGGIGIAPGANIGDRIALFEPTHGTAPDIAGMDRANPCSLILSAEMMLRHLGWTKAADLMVKGVKYTISDRTVTHDFHSMMEHAELLSTSEFGAAVIKNMRRR
notes: as for B1
Take B3: in “purified protein [2]” (metal not stated for mutants), the Km stood at 369.7 ± 11.84 µM, the kcat was found to be 17.7 ± 0.9 s⁻¹ and the kcat/Km was determined as 48000 M⁻¹ s⁻¹.
